Measured values reported in PMC3558466, “An Enzyme-Catalyzed Multistep DNA Refolding Mechanism in Hairpin Telomere Formation” (PLoS Biology, 2013).
Numbering of substitutions follows the chain as printed.

B1: Selenomethionine-labeled TelA (enzyme, Agrobacterium tumefaciens C58, UniProt Q7CWV1 1-442, looked up)
chain: MLAAKRKTKTPVLVERIDQFVGQIKEAMKSDDASRNRKIRDLWDAEVRYHFDNGRTEKTLELYIMKYRNALKAEFGPKSTPLAICNMKKLRERLNTYIARGDYPKTGVATSIVEKIERAEFNTAGRKPTVLLRIADFIAAMNGMDAKQDMQALWDAEIAIMNGRAQTTIISYITKYRNAIREAFGDDHPMLKIATGDAAMYDEARRVKMEKIANKHGALITFENYRQVLKICEDCLKSSDPLMIGIGLIGMTGRRPYEVFTQAEFSPAPYGKGVSKWSILFNGQAKTKQGEGTKFGITYEIPVLTRSETVLAAYKRLRESGQGKLWHGMSIDDFSSETRLLLRDTVFNLFEDVWPKEELPKPYGLRHLYAEVAYHNFAPPHVTKNSYFAAILGHNNNDLETSLSYMTYTLPEDRDNALARLKRTNERTLQQMATIAPVSRKG
modifications: selenomethionine-labeled (eleven selenium sites per TelA monomer located)
notes: Protelomerase TelA, Agrobacterium tumefaciens C58, gene locus Atu_2523, full-length 442 residues; model covers residues 102-421; Phosphotyrosine complex trapped with the nicked suicide substrate DNAc; used for SAD phasing; also called SeMet-TelA; source: E. coli methionine auxotroph strain B834(DE3), selenomethionine-labeled; not shown: His-tag (20 residues), N-terminal, kept
B2: TelA Y201A (enzyme)
chain: B1 chain with Y201A
notes: Crystallised with DNAb; source: E. coli BL21, pBAD promoter, purified (Ni-NTA, Heparin-Sepharose)
B3: TelA R205A (enzyme)
chain: B1 chain with R205A
notes: Crystallised with DNAb6; source: E. coli BL21, pBAD promoter, purified (Ni-NTA, Heparin-Sepharose)
B4: TelA, protelomerase from Agrobacterium tumefaciens C58, wild type (enzyme, UniProt Q7CWV1 1-442, looked up)
chain: B1 chain
notes: Protelomerase TelA, Agrobacterium tumefaciens C58, gene locus Atu_2523, full-length 442 residues; residues 102-421 ordered in the crystal models; In 4E0P and 4E0Y Tyr405 is joined to the cleaved DNA by a phosphotyrosine bond; in 4E0G orthovanadate bridges Tyr405 and the DNA ends; also called telomere resolvase; wild-type TelA; source: E. coli BL21, pBAD promoter, purified (Ni-NTA, …)
B5: TelA R255A (enzyme)
chain: B1 chain with R255A
notes: source: E. coli BL21, pBAD promoter, purified (Ni-NTA, Heparin-Sepharose)

Target: the molecule itself
Assay: crystal structure; TelA-DNA complexes (equal moles of protein monomer and DNA half-site), hanging drop vapor diffusion at 20°C, 5% PEG 4000, 10 mM Tris-HCl pH 7.4, 300 mM NaCl; one TelA per asymmetric unit, the dimer is generated by the crystallographic dyad; TelA is bound to DNA

| Protein | stoichiometry N |
| --- | --- |
| B1 | 2 |
| B2 | 2 |
| B3 | 2 |
| B4 | 2 |
| B5 | 2 |
